Reference: patent US20220025003A1, “REAGENTS AND METHODS FOR CONTROLLING PROTEIN FUNCTION AND INTERACTION” (University of Washington, priority 2018, published 2022)
Several values for one entry are separate records, joined by “and”; a condition that tells them apart may be missing. Identical values can stand only once.

Columns and labels:
[1] = tested on: NS3a in NIH3T3 cells; experiment: Confocal microscopy for colocalization analysis (fixed cells); type: cell-based; settings: 5 μM drug, 15 min
[2] = molecular target: T1, NS3a/danoprevir complex (Hepatitis C virus genotype 1a, UniProt P27958, C1073S/C1078L/C1185S/I1043Q/I1044E/I1098T/L1039E/L1040E/L1047Q/L1179I/N1200S/P1112Q/Q1106K/T1100M/T1173A); experiment: Yeast surface display binding and titration; design: key to relative binding: +: Relative binding of different NS3a/inhibitor complexes is given for conditions where binding was too weak to achieve full titration curves on yeast, indicating binding in the low-to-mid micromolar-range, or weaker.; ++: Relative binding of different NS3a/inhibitor complexes is given for conditions where binding was too weak to achieve full titration curves on yeast, indicating binding in the low-to-mid micromolar-range, or weaker.; +++: Relative binding of different NS3a/inhibitor complexes is given for conditions where binding was too weak to achieve full titration curves on yeast, indicating binding in the low-to-mid micromolar-range, or weaker; settings: for Fold drug specificity: grazoprevir/NS3a over danoprevir/NS3a; for relative binding / Kd: yeast-displayed design, NS3a/danoprevir complex; for Kd: apparent, read-out: KD (nM) ± standard deviation; for binding to NS3a/danoprevir complex: yeast surface display
T1 construct: made in house; host or cells: E. coli BL21 (DE3), pDW363 with BirA
Description: (§1) ; these sorts are denoted as “avid” below. […] See FIG. 30a for yeast gating strategies.
(§2) […]. Curves were fit using Graphpad Prism 5 to a one-site specific binding model with Hill coefficient.

[3] = molecular target: T2, NS3a/grazoprevir complex (Hepatitis C virus genotype 1a, UniProt P27958, C1073S/C1078L/C1185S/I1043Q/I1044E/I1098T/L1039E/L1040E/L1047Q/L1179I/N1200S/P1112Q/Q1106K/T1100M/T1173A); experiment: Yeast surface display binding and titration; design: key to relative binding: +: Relative binding of different NS3a/inhibitor complexes is given for conditions where binding was too weak to achieve full titration curves on yeast, indicating binding in the low-to-mid micromolar-range, or weaker.; ++: Relative binding of different NS3a/inhibitor complexes is given for conditions where binding was too weak to achieve full titration curves on yeast, indicating binding in the low-to-mid micromolar-range, or weaker.; +++: Relative binding of different NS3a/inhibitor complexes is given for conditions where binding was too weak to achieve full titration curves on yeast, indicating binding in the low-to-mid micromolar-range, or weaker; settings: for relative binding / Kd: yeast-displayed design, NS3a/grazoprevir complex; for Kd: apparent, read-out: KD (nM) ± standard deviation; for Fold drug specificity: danoprevir/NS3a over grazoprevir/NS3a
T2 construct: made in house; host or cells: E. coli BL21 (DE3), pDW363 with BirA
Description: as §1, §2

[4] = molecular target: T3, NS3a/asunaprevir complex (Hepatitis C virus genotype 1a, UniProt P27958, C1073S/C1078L/C1185S/I1043Q/I1044E/I1098T/L1039E/L1040E/L1047Q/L1179I/N1200S/P1112Q/Q1106K/T1100M/T1173A); experiment: Yeast surface display binding and titration; design: key to relative binding: +: Relative binding of different NS3a/inhibitor complexes is given for conditions where binding was too weak to achieve full titration curves on yeast, indicating binding in the low-to-mid micromolar-range, or weaker.; ++: Relative binding of different NS3a/inhibitor complexes is given for conditions where binding was too weak to achieve full titration curves on yeast, indicating binding in the low-to-mid micromolar-range, or weaker.; +++: Relative binding of different NS3a/inhibitor complexes is given for conditions where binding was too weak to achieve full titration curves on yeast, indicating binding in the low-to-mid micromolar-range, or weaker; settings: for relative binding / Kd: yeast-displayed design, NS3a/asunaprevir complex; for Kd: apparent, read-out: KD (nM) ± standard deviation
T3 construct: made in house; host or cells: E. coli BL21 (DE3), pDW363 with BirA
Description: as §1, §2

[5] = molecular target: T4, apo NS3a (Hepatitis C virus genotype 1a, UniProt P27958, C1073S/C1078L/C1185S/I1043Q/I1044E/I1098T/L1039E/L1040E/L1047Q/L1179I/N1200S/P1112Q/Q1106K/T1100M/T1173A); experiment: Yeast surface display binding
T4 construct: made in house; host or cells: E. coli BL21 (DE3), pDW363 with BirA
Description: as §1, §2

[6] = 100 μM free drug unable to disrupt DNCR2/danoprevir/NS3a complex on yeast
[7] = tested on: PI3K-Akt signaling in COS-7 cells; experiment: AKT Western blots; type: cell-based; settings: DNCR2 fused to inter-SH2 domain of p85, danoprevir
Experimental: COS-7 cells (ATCC), were plated in 24-well plates at 2×10^5 cells/mL (0.5 mL volume). […] One day after transfection, cells were washed once with DPBS, and media was replaced with serum-free DMEM. After serum-starving for 22 hours, cells were exposed to a 15-min drug treatment using 12, 3-fold dilutions of danoprevir from 5 μM to 0 μM, in triplicate. After drug treatment, cells were washed once in DPBS, then lysed in 50 μL modified RIPA buffer (50 mM Tris-HCl, pH 7.8, 1% v/v IGEPAL CA-630, 150 mM NaCl, 1 mM EDTA, 1× Pierce Protease Inhibitor Tablet) for 30 minutes on ice. Cell debris was cleared by centrifugation at […] for 10 min at 4° C. Lysate was mixed with protein loading dye and denatured at 95° C. for 7 minutes then run on an SDS-PAGE gel (Criterion, Bio-Rad) and transferred to nitrocellulose. Blocking and primary antibody incubations were done in a 1:1 mix of TBS plus 0.1% v/v Tween-20 (TBST) and blocking buffer (Odyssey). Primary antibodies used were pSER473 AKT (1:2000, Cell Signaling Technologies #4060), and pan-AKT (1:2000, Cell Signaling Technologies #2920). […]

[8] = grazoprevir/NS3a over asunaprevir/NS3a
[9] = danoprevir/NS3a over asunaprevir/NS3a

| Molecule | Fold drug specificity [2] | relative binding [2] | specificity for binding grazoprevir/NS3a over NS3a with danoprevir or asunaprevir, or apo NS3a ([3]; yeast surface display) | relative binding [3] | Fold drug specificity [4, 8] | relative binding [4] | binding to apo NS3a [5] | Kd [2] [nM] | binding to NS3a/danoprevir complex [2] | Kd [3] | Kd [4] [nM] | Fold drug specificity [3] | Fold drug specificity [4, 9] | also measured |
| --- | --- | --- | --- | --- | --- | --- | --- | --- | --- | --- | --- | --- | --- | --- |
| ANR—BFP-CAAX: plasma membrane-targeted ANR-BFP fusion (protein) MGELDELVYLLDGPGYDPIHSDGSGTGSGTGSGTGTTSGTGTGGSTGGELDELVYLLDGPGYDPIHSDGSGTGSGTGSGTGTTSGTGTGGSTGEQKLISEEDLGSGSSELIKENMHMKLYMEGTVDNHHFKCTSEGEGKPYEGTQTMRIKVVEGGPLPFAFDILATSFLYGSKTFINHTQGIPDFFKQSFPEGFTWERVTTYEDGGVLTATQDTSLQDGCLIYNVKIRGVNFTSNGPVMQKKTLGWEAFTETLYPADGGLEGRNDMALKLVGGSHLIANIKTTYRSKKPAKNLKMPGVYYVDYRLERIKEANNETYVEQHEVAVARYCDLPSKLGHKLNRKHKEKMSKDGKKKKKKSKTKCVIM | – | – | – | – | – | – | – | – | – | – | – | – | – | Colocalization of NS3a-mCherry with ANR-BFP-CAAX or NLS-DNCR2-EGFP [1]: pre-localized NS3a-mCherry™ to the plasma membrane |
| G3: computational design on DHR18 scaffold binding grazoprevir/NS3a complex, SEQ ID NO: 12 (protein) DIEKLCKKAEEEAKEAQEKADELRQRHPDSQAAEDAEDLANEAEAAVLAACSLAQEHPNADIAKLCIKAASEAAEAASKAAELAQRHPDSQAARDAIKLASQAARAVILAIMLAAENPNADIAKLCIKAASEAAEAASKAAELAQRHPDSQAARDAIKLASQAAEAVERAIWLAAENPNADIAKKCIKAASEAAEEASKAAEEAQRHPDSQKARDEIKEASQKAEEVKERCKS | high | no binding | high specificity | ++ | modest | + | – | – | – | – | – | – | – | binding to NS3a/grazoprevir complex ([3]; yeast surface display): modest, grazoprevir-dependent binding |
| GNCR1: grazoprevir/NS3a complex reader 1, 4 mutations from G3, SEQ ID NO: 11 (protein) DIEKLCKKAEEEAKEAQEKADELRQRHPDSQAAEDAEDLANLAVAAVLTACLLAQEHPNADIAKLCIKAASEAAEAASKAAELAQRHPDSQAARDAIKLASQAARAVILAIMLAAENPNADIAKLCIKAASEAAEAASKAAELAQRHPDSQAARDAIKLASQAAEAVERAIWLAAENPNADIAKKCIKAASEAAEEASKAAEEAQRHPDSQKARDEIKEASQKAEEVKERCKS | >71 fold | – | high specificity | – | >71 fold | – | little-to-no affinity | > 10000 | little-to-no affinity | 140 nM and < 200 nM | > 10000 | – | – | binding to asunaprevir-bound NS3a ([4]; yeast surface display): little-to-no affinity |
| DNCR2: danoprevir/NS3a complex reader, final variant with 14 mutations from D5, SEQ ID NO: 8 (protein) SSDEEEARELIERAKEAAERAQEAAERTGDPRVRELARELKRLAQEAAEEVKRDPSSSDVNEALKLIVEAIEAAVDALEAAERTGDPEVRELARELVRLAVEAAEEVQRNPSSSDVNEALHSIVYAIEAAIFALEAAERTGDPEVRELARELVRLAVEAAEEVQRNPSSRNVEHALMRIVLAIYLAEENLREAEESGDPEKREKARERVREAVERAEEVQRDPSGWLNH | – | – | – | – | – | – | no detectable binding | 0.036 ± 0.0002 | – | 2000 ± 100 nM | 770 ± 50 | 56,000 fold | 21,000 fold | binding to danoprevir alone [6]: does not appear to bind substantially to danoprevir alone; specificity over NS3a bound to the drugs grazoprevir or asunaprevir [2]: > 20,000 fold; PI3K-Akt signaling activation [7]: capable of activating PI3K-Akt signaling |
| D5: computational design on DHR79 scaffold binding danoprevir/NS3a complex, SEQ ID NO: 10 (protein) SSDEEEARELIERAKEAAERAQEAAERTGDPRVRELARELKRLAQEAAEEVKRDPSSSDVNEALKLIVEAIEAAVDALEAAERTGDPEVRELARELVRLAVEAAEEVQRNPSSSDVNEALLTIVIAIEAAVNALEAAERTGDPEVRELARELVRLAVEAAEEVQRNPSSREVNIALWKIVLAIQEAVESLREAEESGDPEKREKARERVREAVERAEEVQRDPSGWLNH | – | ++ | – | +++ | – | + | – | – | modest, drug-dependent binding | – | – | none | modest | – |
